According to the DeepSol protein solubility set:

Experiment: soluble on expression in E. coli; label from the status in PepcDB or PDB records

Sequence | soluble on expression in E. coli
MGSDKIHHHHHHMLSRTADHLFWMARYTERAENTARMLDVNYQTSLLPQSAEVAEQGWWAMLDISELTNAFDHKYGLLTRDDVIDFMVRDMTNPSSIMSCLRAARENARAVRGSLTTEVWETVNTTWLDVQRMIADGELQEDPSRFFEWVKFRSHLARGVQFGTMLKDDAFHFMRLGTFLERADNTARILDVKFQASGSDDSDPNREQNDFYHWAAVLRSVSGFEVYRKVYRAVITPQRVAELLILRPDMPRSLVSSMDEVVAILAMVCNHQSGETERQAGKLHADLKFARIDDIFAVGLHAFLTSFLERIGDIGNGISRDFLVPLQAA | not soluble
MSAVKKQRIDLRLTDDDKSMIEEAAAISNQSVSQFMLNSASQRAAEVIEQHRRVILNEESWTRVMDALSNPPSPGEKLKRAAKRLQGM | soluble
SNFLEIDIFNPQTVGVGRARFTTYEVRMRTNLPIFKLKESCVRRRYSDFEWLKNELERDSKIVVPPLPGKALKRQLPFRGDEGIFEESFIEERRQGLEQFINKIAGHPLAQNERCLHMFLQEEAIDRNYVPGK | soluble
MGSDKIHHHHHHMAPASFSQITGQSVGKIGVLFLLLMVLWSANLCNSSDITPLSANRANVGQMVQAFTFDDLFKEDGPSSDLPQRVFRQTSSWRGFSQLEFAETIASPKHASKLRLRSELSNLGQLSPNVKWKLSARIDYDAIYDLSDFYSRQVRRDQRFELFLRENYLDFSIADFDVRVGRQHIVWGEMVGLFFADVVSAKDMREFVLPDFDILRIPQWAVRTEYSKNDFHADLIWIPFASLDEIGRPGADFYPFKLPVAAPVSFLKEDRSGRNVAHSNYGIRLSQLTNGWDVSAFYYHSLDATPTFHRISQPWEPLLFQARHGEIDQAGGTVTKDLGSAVLKGEFVYTHGRRFNVTRPTAADGLVRQDTIDYALGLDFTLPSDIRLNLQFFQRAYLNYDRDIFQDRLENGGSIFLQGDLWRDFQGQILLIHSFNRNEWMLRPRLTWNFARNWKLAAGADIFNGPPTGLFGRFDSSDRVYTELRFSF | not soluble
MLWKEYEEASSLTARVVKHLDKFDMIVQADKYEKTHEIDLQQFFTSTVGVLKMEPFATWDRELRENRMKRINKAE | not soluble
MAHHHHHHMSKADENGNELMEIEEVAVSDGGAARFAAVDVKSGEERFNVIWQDSGKLMRFDEGENQWKERGQGTAKVLQRKDNTSKYMFVFRREGVGKLAAQHYLVKGMKVTKHKQGEKILVWSAFKDFTDDEEGFPENFVMRLSSKEAADKALAEMMGAIEKSSV | soluble
MSLAKKILVTGAGGYIGRHVVSALLDAGQDVIASDLRLDGVDERATKVQANIFEPNDNLFEELGAPDVCLHMAWRDGFKHNSDNHMGDLSNHYRFLKHMLDSGLKQIAVMGTMHEVGYWEGAIDENTPCHPASMYGIAKNALREATLMLAKEYDATAQWIRAYYIVGDDAHGNSIFSKLLQAANDGKATFPFTTGKNKYDFIDVDELARQISAVVSQDAVDGVINCCTGEPMTLAERVERYIKENDLNIKLDYGAFPDRPYDSPGVWGDASKINKIMKEGHHHHHH | soluble
MGSDKIHHHHHHMQVIIVEDEKTLRFSPLADLKPVYDLVTGCFSLRQRFVEALGARQKLTWHLRRHIAPWFAEANPGSVVNRVLEDEVLLVNGRLICDAAVTQFIDARKIAPGEALIQNGNLLFCRTTAEPLHVLETVFPDTIDGMVLAGAFSCVEVSGFRLIENLWDPVAMHPAMMREDGAALALGRIEGEVHPSAILVNPSAITVEKGAEVKAGAVLDASDGFIYIGAGAVVEPVALLMENVYIAPGARVKSGARIYSNVCIGGGAKAGGEIEDSIMEPFSNKQHDGFLGHSYISSWCNLGAGTDTSDLKNNYSPVSIETAHGKMATGQQFLGLLMGEHSKCSIGTRFNTGTVVGISSNIFGNGMPAKYVPSFSWGDGNPGTARYEADKAVETARKVMARRKVEMSAAYEAMFRAVAGE | not soluble
MAHHHHHHMLVKENHSVILYADEENVELVKLTSDGVLTNRKGTFLHKNIIGKKYGSKIYDSACRNYIYVLRRTPEFVAISLKKKTQTLYEHDISFICLLCNALPNKKIIEAGTGTGCLTYALASCVLPKGVIHTFEYNEERYEEVRNEFSNFENVKNNIKFHHKDVISDSFVEFQPGEIDSVFLDMPNPWLCVPHVKKVLKERGVFVIFLPCIEQVYKIIEALEENQFCEIVTYELVNKSWEIIRNGGPAGGCKRARQFSLGGAKETSDPLEGVKETGDPLEGVKETGGPLEGVKETGDPLEGVKETGDPLERAKQSNDPLERAKQSSDPSNEQKNCPTPAQSQNPTYRLRQKENKTHTGYLIFSKKELSDEHEQIEIELKGV | not soluble
MYSEERRRQIASLTAVEGRVNVTELAARFDVTAETIRRDLAVLDREGVVHRVHGGAVANQTFQTAEFSLDTRSRSASGAKNSIAHAALSYLPEAQGGLFLDAGTTTAALAELLAAQPFAKHWSIVTNSLSIALTLANSGLDEIQLLGGSVRAITQAVVGDTALRTLALMRADVAFIGTNALTIDHGLSTADSQEAAIKSAMITNAHKVVVLCDSTKMGTDYLVSFGSISDIDVIITDANAPESFVKALRDRDVEVIIALEHHHHHH | soluble
MGSDKIHHHHHHMIFSNLKLNDNEPIYIQLKNYISDMISKGLIPDNSKLPSTRELSQLLQVSRNSVVLTYEELKSEGLIYSISGKGTFVKSKNKSSNTTWSLNWDCLENTYSKKANELDIIKSEIPWSSDLISFKSISPDGDLFDMEELKKSFLNRISLEGHKLLNYGYAQGYKPLIDYLLEYMTNKGADISNKDILITNGFTEGFDIIMSSFTQEKDYIICENPTHNTAIKIMKSHNLNILGVDINEDGLDFNMLEDNLIKYKNKIKFAYITPSYHNPTGIVMTPENRYKFYNLMKKYNIAIIEDGFNEELLYNSSHIFPICSLDNMNNGVVYIGSFSKILFPGMRIGWIFADKKVINKLESVKRCRNIHVSFLDQGILFDYLSNGGFEKYIKKIRKFYGDKFNFAYKCIKKYIKTEYILGDGGLHIFIKLKNIDTRVLLEKCYEKNVIFMPGDLFFTDNSGFDTLRLGFSRLSFEDIEIGIKIIGETINEMF | not soluble
DSVIVVDNVPQVGPDRLEKLKNVIHKIFSKFGKITNDFYPEEDGKTKGYIFLEYASPAHAVDAVKNADGYKLDKQHTFRVN | soluble
MGSDKIHHHHHHMERLPTTPHDAVFRQMLMQKEVARDFLAIHMPEDFLAICDLDSLKLESGSFVEDNLRSRYSDILYSLHTQHGPGYVYALIEHQSKSDRLMAFRLMRYAIAAMQRHLDAGHDTLPLVVPILFYHGPESPWPYSLNWHNMFVKPDMAKALYSRDFALVDLTTMPDNQLLQHRRIAMLELLQKHIRQRDLSELLDPLITLLTQDHLTDAQLSVLINYMLKAGNAAEPGALIRQLAQGAPQYKEQLMTIAEWLEEKGRTEGLQKGLQKGLEQGLAQGREAEARAIARKMLANGLEPGLIASVTGITPEELSTLSH | not soluble
AIAENSSKEDYKIQSFDLETQKLLKTALKDPGSVDLEKVSSVIVDQSLKDQVFSREAGRICYTIVQAEAKQTNGSVFRRNLLNRLQQEFKAREETRKRSTQEWVCLVSFICNIFDYLKVNNMPMVALVHPVYDCLFRLAQSDALKNEEEVDCLVLQLHRIGDQLEKMNVQLMDELFNLLRDGFLLQEDLSSMGRLLLLEILEFRAGGWKLSDTAQKYYYSEVTD | soluble
MTVIVGPKTKPPEAIKDASMARQKQMVNAHYDRLASAKERGEKVAATFVPGNLNELLMCFDMVNNLPEVNAIQNGLRRQSGGYVMEAEKLGHSEDVCTYVKSDIGMMAKGNIGPNGKPLPDPDVLLLSYTGCFTFMKWFELLRRQYKCETIMFQTPYLADGRITKDMISYMVKQLRQDVIPKLERISGVKFDIDRLREYLRKSAKAEDDHVWVLQSAKHKPSPIDAYFGGIYYIGPIFGAFRGTDDAIEYYKFLRAEVEQRIAQGKGPVTPDGDMGQERYRLVVEGPPNYTNFRQFWKMFYDEGAVVVASSYTKVGGTYDYGFRHDPDRPLESLAEYCLNVYTNRNLPMRVDMLENYINEYEADGLLINSIKSCNSFSAGQLLMMREVEKRTGKPAAFIETDLVDPRYFSAANVKNRLESYFQMIEQKRAGFRGAA | not soluble
MSLNRNNPLEVLGHVSWLWASSPLHRNWPVSLFAINVLPAIRANQYALLTRDNYPVAYCSWANLSLENEIKYLNDVTSLVAEDWTSGDRKWFIVWIAPFGDNGALYKYMRKKFPDELFRAIRVDPKTHVGKVSEFHGGKIDKQLANKIFKQYHHELITEVKNKSDFNFSLTGEGHHHHHH | soluble
MPKPYVAINMAELKNEPKTFEMFASVGPKVCMVTARHPGFVGFQNHIQIGILPFGNRYGGAKMDMTKESSTVRVLQYTFWKDWKDHEEMHRQNWSYLFRLCYSCASQMIWGPWEPIYEIIYANMPINTEMTDFTAVVGKKFAEGKPLDIPVISQPYGKRVVAFAEHSVIPGKEKQFEDAIVRTLEMLKKAPGFLGAMVLKEIGVSGIGSMQFGAKGFHQVLENPGSLEPDPNNVMYSVPEAKNTPQQYIVHVEWANTDALMFGMGRVLLYPELRQVHDEVLDTLVYGPYIRILNPMMEGTFWREYLNEQAWRHPQFGG | soluble
MTDEAFAQADPEWLALIRAAREWLSGPLGQLLLEEERRVLDEELGRYFGGYLVHYGPSAQNPPVAPQVQRNVRLGAPLPGVEIVCEEQAWPLSEHAADVVVLQHGLDFCLSPHGLLREAASSVRPGGHLLIIGINPWSAWGVRHVFARDALRKARCISSSRVADWLNLLGFALEKRRFGCYRPPLASAAWQSRLAGLESLGEGRQSPGGGFYLLVARKLVVGLRPLRQVRRDPIGKLIPMPMAKVSRNTQDCS | not soluble
HGTSDATLLKGVGHLYGTALPVGGLGTRSVLTAHSGIQKSTFFDNLEKVKKGDAIYVRNIGETLKYQVRDIEIIRPAEIDRIQPIPDRDLITLVTCTPYGINTHRLLVTAERVPMEPGEADRAFAGDGIVWQWWMK | not soluble
MLLDEKALVTLQKLGLTYYGARVYITLVSLGSSDATELSIESEVPRTKIYNVLKRLEAEKWIAVEHTRPIIYTAKYPKDILKEKRVAFNSEINEVSNQLSEVYDKVIDNEVPKVWLLRGMNNITAKTINMIKRAKRDITLLGALYSENEIEQLKEELSYATKKGLHVRVISRQSIKLNNGELDIIKNLSSVIPQIKIGGPEFSKFVIIDDKELLILFSKVEDNILDIDSTIAIWIPNVSIASYQASIFNGIWNGYCQVDRC | not soluble
MSLSLYDSAHSLDGKSGWDTPVFSMKDSMDRNPMVTEAWEALCQSQVYFRGKPVGTIAAYDHASEEVLNYDQVFVRDFVPSALAFLMNGEPEIVKNFLLKTLHIQGQDKMIDKFKLGDGAMPASFKVLHNPIKKTDTIIADFGESAIGRVAPVDSGFWWIILLRAYTKSTGDHSLAERPECQKGMRLILSLCLSEGFDTFPTLLCADGCSMVDRRMGIYGYPIEIQALFFMALRSALSMLKHDSEGKEFMEKIVKRLHALSFHMRSYFWLDFQQLNDIYRYKTEEYSHTAVNKFNVIPDSIPDWIFDFMPLRGGYFVGNVSPARMDFRWFALGNCIAILSSLATPEQSMAIMDLIEARWEELVGEMPLKICYPAMESHEWGIVTGCDPKNTRWSYHNGGSWPVLLWLLTAASIKTGRPQIARRAIELAEARLLKDGWPEYYDGKSGRFIGKQARKSQTWSIAGYLVAKMMMDDPTHVGMISMEEEKHMKPPLRRSSSWT | soluble
